Data from patent publication US20140086829A1 (BIOREC S A, published 2014).

Assays:
[1] = molecular target: T1, isoform 121 of human VEGF-A (Peprotech) (human, UniProt P15692-9 27-147); assay: ELISA; antigen coated 1 µg/ml; scFv 10 µg/mL; 9E10-peroxidase
T1 construct: also called human VEGF121; VEGF 121
T1 sequence (looked up): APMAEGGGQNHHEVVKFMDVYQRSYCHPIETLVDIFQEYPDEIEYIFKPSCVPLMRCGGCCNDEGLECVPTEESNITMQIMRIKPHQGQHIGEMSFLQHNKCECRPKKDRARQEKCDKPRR

[2] = molecular target: T2, isoform 165 of human VEGF-A (Peprotech) (human, UniProt P15692-4 27-191); assay: as above
T2 construct: also called human VEGF165; VEGF 165
T2 sequence (P15692 other isoform, or with tags, fused parts or gaps limits assumed): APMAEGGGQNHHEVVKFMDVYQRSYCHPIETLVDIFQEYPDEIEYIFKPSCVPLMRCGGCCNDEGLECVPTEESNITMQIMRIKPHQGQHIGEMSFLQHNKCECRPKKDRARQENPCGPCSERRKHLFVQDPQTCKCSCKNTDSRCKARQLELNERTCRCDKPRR

human GST-VEGF [3] = molecular target: T3, human GST-VEGF (human, UniProt P15692-9 27-147); assay: competition ELISA on coated GST-VEGF; soluble scFv 2H1 titrated; competitor phage scFv L3
T3 construct: also called GST-VEGF humano; not shown: GST fusion partner
T3 sequence (looked up): T1 sequence (looked up)

human GST-VEGF [4] = molecular target: T3, human GST-VEGF; assay: competition ELISA on coated GST-VEGF; soluble scFv 2H1 titrated; competitor phage scFv 2A7
human GST-VEGF [5] = molecular target: T3, human GST-VEGF; assay: competition ELISA on coated GST-VEGF; soluble scFv 2H1 titrated; competitor phage scFv 3C4
human GST-VEGF [6] = molecular target: T3, human GST-VEGF; assay: competition ELISA on coated GST-VEGF; soluble scFv 2H1 titrated; competitor phage scFv 3D4
human GST-VEGF [7] = molecular target: T3, human GST-VEGF; assay: competition ELISA on coated GST-VEGF; soluble scFv 2H1 titrated; competitor phage scFv 3E2
human GST-VEGF [8] = molecular target: T3, human GST-VEGF; assay: competition ELISA on coated GST-VEGF; soluble scFv 2H1 titrated; competitor phage scFv 3E3
human GST-VEGF [9] = molecular target: T3, human GST-VEGF; assay: competition ELISA on coated GST-VEGF; soluble scFv 2H1 titrated; competitor phage scFv 3E5
human GST-VEGF [10] = molecular target: T3, human GST-VEGF; assay: competition ELISA on coated GST-VEGF; soluble scFv 2H1 titrated; competitor phage scFv 3F3
human GST-VEGF [11] = molecular target: T3, human GST-VEGF; assay: competition ELISA on coated GST-VEGF; soluble scFv 2H1 titrated; competitor phage scFv 3H2
human GST-VEGF [12] = molecular target: T3, human GST-VEGF; assay: competition ELISA on coated GST-VEGF; soluble scFv 2H1 titrated; competitor phage scFv 1B1
human GST-VEGF [13] = molecular target: T3, human GST-VEGF; assay: competition ELISA on coated GST-VEGF; soluble scFv 2H1 titrated; competitor phage scFv 1C9
human GST-VEGF [14] = molecular target: T3, human GST-VEGF; assay: competition ELISA on coated GST-VEGF; soluble scFv 2H1 titrated; competitor phage scFv 1E9
human GST-VEGF [15] = molecular target: T3, human GST-VEGF; assay: competition ELISA on coated GST-VEGF; soluble scFv 2H1 titrated; competitor phage scFv 1H2
human GST-VEGF [16] = molecular target: T3, human GST-VEGF; assay: competition ELISA on coated GST-VEGF; soluble scFv 2H1 titrated; competitor phage scFv 2F5
human GST-VEGF [17] = molecular target: T3, human GST-VEGF; assay: competition ELISA on coated GST-VEGF; soluble scFv 2H1 titrated; competitor phage scFv 1B1; remark: listed apart in the source
human GST-VEGF [18] = molecular target: T3, human GST-VEGF; assay: competition ELISA on coated GST-VEGF; soluble scFv 2H1 titrated; competitor phage scFv 1H2; remark: listed apart in the source
human GST-VEGF [19] = molecular target: T3, human GST-VEGF; assay: competition ELISA on coated GST-VEGF; soluble scFv 2H1 titrated; competitor phage scFv 2F6
human GST-VEGF [20] = molecular target: T3, human GST-VEGF; assay: competition ELISA on coated GST-VEGF; soluble scFv 2H1 titrated; competitor phage scFv 3E3; remark: listed apart in the source
human GST-VEGF [21] = molecular target: T3, human GST-VEGF; assay: competition ELISA on coated GST-VEGF; soluble scFv 2H1 titrated; competitor phage scFv 3F3; remark: listed apart in the source
human GST-VEGF [22] = molecular target: T3, human GST-VEGF; assay: competition ELISA on coated GST-VEGF; soluble scFv 2H1 titrated; competitor phage scFv 3B10
human GST-VEGF [23] = molecular target: T3, human GST-VEGF; assay: competition ELISA on coated GST-VEGF; soluble scFv 2H1 titrated; competitor phage scFv 2D1O
human GST-VEGF [24] = molecular target: T3, human GST-VEGF; assay: competition ELISA on coated GST-VEGF; soluble scFv 2H1 titrated; competitor phage scFv 2H10
human GST-VEGF [25] = molecular target: T3, human GST-VEGF; assay: competition ELISA on coated GST-VEGF; soluble scFv 2H1 titrated; competitor phage scFv L3H7

B1: soluble scFv 2H1 antibody fragment (scFv, from another filing)
scFv: QQVQLVQSGAEVKKPGESLKISCKGSGYSFTSYWIGWVRQMPGKGLEWMGIIYPGDSDTRYSPSFQGQVTISADKSISTAYLQWSSLKASDTAMYYCARLVVRDTEIWGQGTMVTVSSAPQAKSSGSGSESKVDQAVVTQEPSLTVSPGGTVTLTCASSIGAVTSGNYPNWFQQRPGQPPRALIYSTSNKHSWTPARFSGSLLGGKAALTLSGAQPEDEAEYYCLLSYSGARPVFGGGTKLTVLGAAAGSEQKLISEEDLNSHHHHHH
- absorbance at 492 nm [1]: 0.691
- absorbance at 492 nm [2]: 0.665
- IC50 (human GST-VEGF [3]): 358 µg/mL
- IC50 (human GST-VEGF [4]): 15.8 µg/mL
- IC50 (human GST-VEGF [5]): 29 µg/mL
- IC50 (human GST-VEGF [6]): 16.3 µg/mL
- IC50 (human GST-VEGF [7]): 15.3 µg/mL
- IC50 (human GST-VEGF [8]): 35.1 µg/mL
- IC50 (human GST-VEGF [9]): 9.06 µg/mL
- IC50 (human GST-VEGF [10]): 48.9 µg/mL
- IC50 (human GST-VEGF [11]): 19.6 µg/mL
- IC50 (human GST-VEGF [12]): 151 µg/mL
- IC50 (human GST-VEGF [13]): 38.3 µg/mL
- IC50 (human GST-VEGF [14]): 46.2 µg/mL
- IC50 (human GST-VEGF [15]): 124 µg/mL
- IC50 (human GST-VEGF [16]): 4.21 µg/mL
- IC50 (human GST-VEGF [17]): 149 µg/mL
- IC50 (human GST-VEGF [18]): 120 µg/mL
- IC50 (human GST-VEGF [19]): 115 µg/mL
- IC50 (human GST-VEGF [20]): 34.6 µg/mL
- IC50 (human GST-VEGF [21]): 49.7 µg/mL
- IC50 (human GST-VEGF [22]): 7.94 µg/mL
- IC50 (human GST-VEGF [23]): 65.7 µg/mL
- IC50 (human GST-VEGF [24]): 10.2 µg/mL
- IC50 (human GST-VEGF [25]): 890 µg/mL
